Experimental data published in patent US20250027955A1, “ETHYLENE RECEPTORS AND BINDING DOMAINS WITH MODIFIED BINDING KINETICS FOR ETHYLENE” (Trustees of Dartmouth College, priority 2022, published 2025).

Key:
[1] = test system: Arabidopsis seedlings, etr1 etr2 ein4 background; assay: Triple-response hypocotyl growth assay of dark-grown seedlings expressing ETR1 transgenes; assay type: in vivo; conditions: for hypocotyl growth response to ethylene: dark-grown seedlings, 0 or 1 μL L^−1 ethylene
Method: Functionality of the ETR1 Asp25 mutants was tested by transgenic expression in the etr1 etr2 ein4 Arabidopsis background.
Applicant can thus exploit the triple mutant to assess the ability of the ETR1 transgenes to rescue growth in the absence of ethylene as well as their ability to mediate a response to ethylene. Such an analysis indicates whether the encoded receptors are able to assume the ‘on’ conformation that represses the ethylene response in air, as well as the ‘off’ conformation that occurs in response to ethylene binding.
All Arabidopsis lines were of the Columbia (Col-0) accession. The etr1-1 and etr1-6 etr2-3 ein4-4 mutant lines have been described. Analysis of the triple response of dark-grown Arabidopsis seedlings to ethylene was performed as described previously. Briefly, seedlings were grown at 22° C. on vertically oriented plates on half-strength Murashige and Skoog basal medium with Gamborg's vitamins (pH 5.75; Sigma), 0.8% (w/v) agar, and 5 μM aminoethoxyvinylglycine (AVG) to inhibit ethylene biosynthesis. The stratified seed was exposed to light for 8 hr and then moved to the dark in the presence or absence of ethylene, with analysis of the seedling growth being performed following 4 days total growth. For short-term kinetic analysis of dark-grown seedlings, time-lapse imaging and growth rate analysis of hypocotyls were carried out as described previously.

[2] = Saturable [14C]ethylene binding to yeast transgenically expressing ETR1; parameters: species or system Saccharomyces cerevisiae; conditions: 0.21 μL L^−1 [14C]ethylene; % of wild-type binding
Source text: Saturable ethylene binding of the ETR1 Asp25 mutants was examined by heterologous expression in yeast, with binding to [^14C]ethylene determined in the presence or absence of excess [^12C]ethylene (FIG. 2C). […] This included the ETR1^D25A mutant, consistent with previous observations, as well as for the ETR1^D25N and ETR1^D25Q mutants (FIG. 2C). Results from the ethylene binding assay are therefore consistent with the negative charge at D25 playing a significant role in mediating high-affinity ethylene binding.
[^14C]ethylene (specific activity=116 mCi/mmol) was obtained from ViTrax Radiochemicals (Placentia, CA) and trapped as the mercuric perchlorate complex as described. For ethylene binding assays in yeast, ETR1 was expressed in the yeast Saccharomyces cerevisiae (strain FY834) using the vector pYcDE-2 and a constitutive ADC1 promoter. The yeast growth media was supplemented with 40 μg L^−1 copper sulfate. Saturable ethylene binding to yeast was determined by analyzing binding of 0.3 g yeast per sample to 0.21 μL L^−1 [^14C]ethylene, in the presence or absence of excess [^12C]ethylene.

Molecule	hypocotyl growth response to ethylene [1]	ethylene binding relative to ETR1^wt [2]	rescue of growth of etr1 etr2 ein4 triple mutant in air ([1]; absence of ethylene, hypocotyl and adult shoot growth)
ETR1^K91R: ETR1 with basic Lys91 replaced by Arg (protein, UniProt P49333 1-738, looked up, variant K91R) Ethylene receptor 1: MEVCNCIEPQWPADELLMKYQYISDFFIAIAYFSIPLELIYFVKKSAVFPYRWVLVQFGAFIVLCGATHLINLWTFTTHSRTVALVMTTARVLTAVVSCATALMLVHIIPDLLSVKTRELFLKNKAAELDREMGLIRTQEETGRHVRMLTHEIRSTLDRHTILKTTLVELGRTLALEECALWMPTRTGLELQLSYTLRHQHPVEYTVPIQLPVINQVFGTSRAVKISPNSPVARLRPVSGKYMLGEVVAVRVPLLHLSNFQINDWPELSTKRYALMVLMLPSDSARQWHVHELELVEVVADQVAVALSHAAILEESMRARDLLMEQNVALDLARREAETAIRARNDFLAVMNHEMRTPMHAIIALSSLLQETELTPEQRLMVETILKSSNLLATLMNDVLDLSRLEDGSLQLELGTFNLHTLFREVLNLIKPIAVVKKLPITLNLAPDLPEFVVGDEKRLMQIILNIVGNAVKFSKQGSISVTALVTKSDTRAADFFVVPTGSHFYLRVKVKDSGAGINPQDIPKIFTKFAQTQSLATRSSGGSGLGLAISKRFVNLMEGNIWIESDGLGKGCTAIFDVKLGISERSNESKQSGIPKVPAIPRHSNFTGLKVLVMDENGVSRMVTKGLLVHLGCEVTTVSSNEECLRVVSHEHKVVFMDVCMPGVENYQIALRIHEKFTKQRHQRPLLVALSGNTDKSTKEKCMSFGLDGVLLKPVSLDNIRDVLSDLLEPRVLYEGM	conferred ethylene hyposensitivity	63%	–
ETR1^D25N,K91A: ETR1 combining Asp25Asn with K91A (protein, UniProt P49333 1-738, looked up, variant D25N K91A) Ethylene receptor 1: MEVCNCIEPQWPADELLMKYQYISNFFIAIAYFSIPLELIYFVKKSAVFPYRWVLVQFGAFIVLCGATHLINLWTFTTHSRTVALVMTTAAVLTAVVSCATALMLVHIIPDLLSVKTRELFLKNKAAELDREMGLIRTQEETGRHVRMLTHEIRSTLDRHTILKTTLVELGRTLALEECALWMPTRTGLELQLSYTLRHQHPVEYTVPIQLPVINQVFGTSRAVKISPNSPVARLRPVSGKYMLGEVVAVRVPLLHLSNFQINDWPELSTKRYALMVLMLPSDSARQWHVHELELVEVVADQVAVALSHAAILEESMRARDLLMEQNVALDLARREAETAIRARNDFLAVMNHEMRTPMHAIIALSSLLQETELTPEQRLMVETILKSSNLLATLMNDVLDLSRLEDGSLQLELGTFNLHTLFREVLNLIKPIAVVKKLPITLNLAPDLPEFVVGDEKRLMQIILNIVGNAVKFSKQGSISVTALVTKSDTRAADFFVVPTGSHFYLRVKVKDSGAGINPQDIPKIFTKFAQTQSLATRSSGGSGLGLAISKRFVNLMEGNIWIESDGLGKGCTAIFDVKLGISERSNESKQSGIPKVPAIPRHSNFTGLKVLVMDENGVSRMVTKGLLVHLGCEVTTVSSNEECLRVVSHEHKVVFMDVCMPGVENYQIALRIHEKFTKQRHQRPLLVALSGNTDKSTKEKCMSFGLDGVLLKPVSLDNIRDVLSDLLEPRVLYEGM	all ethylene insensitive	–	–
ETR1^D25N,K91M: ETR1 combining Asp25Asn with K91M (protein, UniProt P49333 1-738, looked up, variant D25N K91M) Ethylene receptor 1: MEVCNCIEPQWPADELLMKYQYISNFFIAIAYFSIPLELIYFVKKSAVFPYRWVLVQFGAFIVLCGATHLINLWTFTTHSRTVALVMTTAMVLTAVVSCATALMLVHIIPDLLSVKTRELFLKNKAAELDREMGLIRTQEETGRHVRMLTHEIRSTLDRHTILKTTLVELGRTLALEECALWMPTRTGLELQLSYTLRHQHPVEYTVPIQLPVINQVFGTSRAVKISPNSPVARLRPVSGKYMLGEVVAVRVPLLHLSNFQINDWPELSTKRYALMVLMLPSDSARQWHVHELELVEVVADQVAVALSHAAILEESMRARDLLMEQNVALDLARREAETAIRARNDFLAVMNHEMRTPMHAIIALSSLLQETELTPEQRLMVETILKSSNLLATLMNDVLDLSRLEDGSLQLELGTFNLHTLFREVLNLIKPIAVVKKLPITLNLAPDLPEFVVGDEKRLMQIILNIVGNAVKFSKQGSISVTALVTKSDTRAADFFVVPTGSHFYLRVKVKDSGAGINPQDIPKIFTKFAQTQSLATRSSGGSGLGLAISKRFVNLMEGNIWIESDGLGKGCTAIFDVKLGISERSNESKQSGIPKVPAIPRHSNFTGLKVLVMDENGVSRMVTKGLLVHLGCEVTTVSSNEECLRVVSHEHKVVFMDVCMPGVENYQIALRIHEKFTKQRHQRPLLVALSGNTDKSTKEKCMSFGLDGVLLKPVSLDNIRDVLSDLLEPRVLYEGM	further reduction in the ability to rescue seedling growth and respond to ethylene	–	–
ETR1^K91M: ETR1 with Lys91 replaced by a nonpolar sidechain of similar size (Met) (protein, UniProt P49333 1-738, looked up, variant K91M) Ethylene receptor 1: MEVCNCIEPQWPADELLMKYQYISDFFIAIAYFSIPLELIYFVKKSAVFPYRWVLVQFGAFIVLCGATHLINLWTFTTHSRTVALVMTTAMVLTAVVSCATALMLVHIIPDLLSVKTRELFLKNKAAELDREMGLIRTQEETGRHVRMLTHEIRSTLDRHTILKTTLVELGRTLALEECALWMPTRTGLELQLSYTLRHQHPVEYTVPIQLPVINQVFGTSRAVKISPNSPVARLRPVSGKYMLGEVVAVRVPLLHLSNFQINDWPELSTKRYALMVLMLPSDSARQWHVHELELVEVVADQVAVALSHAAILEESMRARDLLMEQNVALDLARREAETAIRARNDFLAVMNHEMRTPMHAIIALSSLLQETELTPEQRLMVETILKSSNLLATLMNDVLDLSRLEDGSLQLELGTFNLHTLFREVLNLIKPIAVVKKLPITLNLAPDLPEFVVGDEKRLMQIILNIVGNAVKFSKQGSISVTALVTKSDTRAADFFVVPTGSHFYLRVKVKDSGAGINPQDIPKIFTKFAQTQSLATRSSGGSGLGLAISKRFVNLMEGNIWIESDGLGKGCTAIFDVKLGISERSNESKQSGIPKVPAIPRHSNFTGLKVLVMDENGVSRMVTKGLLVHLGCEVTTVSSNEECLRVVSHEHKVVFMDVCMPGVENYQIALRIHEKFTKQRHQRPLLVALSGNTDKSTKEKCMSFGLDGVLLKPVSLDNIRDVLSDLLEPRVLYEGM	partial ethylene hyposensitivity	approximately 6%	failed to rescue seedling growth efficiently
ETR1^D25N,K91R: ETR1 combining Asp25Asn with K91R (protein, UniProt P49333 1-738, looked up, variant D25N K91R) Ethylene receptor 1: MEVCNCIEPQWPADELLMKYQYISNFFIAIAYFSIPLELIYFVKKSAVFPYRWVLVQFGAFIVLCGATHLINLWTFTTHSRTVALVMTTARVLTAVVSCATALMLVHIIPDLLSVKTRELFLKNKAAELDREMGLIRTQEETGRHVRMLTHEIRSTLDRHTILKTTLVELGRTLALEECALWMPTRTGLELQLSYTLRHQHPVEYTVPIQLPVINQVFGTSRAVKISPNSPVARLRPVSGKYMLGEVVAVRVPLLHLSNFQINDWPELSTKRYALMVLMLPSDSARQWHVHELELVEVVADQVAVALSHAAILEESMRARDLLMEQNVALDLARREAETAIRARNDFLAVMNHEMRTPMHAIIALSSLLQETELTPEQRLMVETILKSSNLLATLMNDVLDLSRLEDGSLQLELGTFNLHTLFREVLNLIKPIAVVKKLPITLNLAPDLPEFVVGDEKRLMQIILNIVGNAVKFSKQGSISVTALVTKSDTRAADFFVVPTGSHFYLRVKVKDSGAGINPQDIPKIFTKFAQTQSLATRSSGGSGLGLAISKRFVNLMEGNIWIESDGLGKGCTAIFDVKLGISERSNESKQSGIPKVPAIPRHSNFTGLKVLVMDENGVSRMVTKGLLVHLGCEVTTVSSNEECLRVVSHEHKVVFMDVCMPGVENYQIALRIHEKFTKQRHQRPLLVALSGNTDKSTKEKCMSFGLDGVLLKPVSLDNIRDVLSDLLEPRVLYEGM	more insensitive to ethylene than the ETR1^K91R mutant	–	–
